This data set concerns the target Maltose binding protein (MBP) (UniProt P0AEX9 27-396). The data set is described as follows: ELASA; 500 nM aptamer; PBS (137 mM NaCl, 2.7 mM KCl, 10 mM Na2HPO4, 1.8 mM KH2PO4, pH 7.4); ELASA 30 min at 4 C after 3% BSA block; sandwich capture in PBS, temperature not stated.

The text below walks through data of PMC7249735.

B1: A-aptamer-ELASA (modified B11) (ssDNA)
DNA: TTCTTTTATTAGTTGATTTTTTTGATTTTGGCAGCTACTGCTTTGGGGGTGCTGAGGCGAAGGACGCAGATGAAGTCTC
modifications: 3' biotin
On to B1, for which the binding result is on record as “no binding”.
